Source: patent US10925971B2, “Methods of treating PRLR positive breast cancer” (Regeneron Pharmaceuticals, Inc., priority 2016, dated 2021)

Assays:
[1] = target: human PRLR (dimeric) binding to PRL (Homo sapiens, UniProt P16471); assay: ELISA-based blocking of PRLR binding to immobilized human PRL; conditions: plates coated with 1 μg/mL PRL; read-out: EC50, human PRLR binding to captured PRL
Description: (§1) ELISA-based blocking assays were developed to determine the ability of H1H6958N2 and H1H6958N2-DM1 to block binding of human and cynomolgus monkey PRLR to immobilized human PRL. Dimeric forms of human or cynomolgus monkey (Macaca fascicularis) PRLR and monomeric human PRL were used in this assay. To generate initial dose-response curves, human or monkey PRLR at concentrations ranging from 3.38 pM to 200 nM was added to the plates previously coated in 1 μg/mL PRL. After 1-hour incubation, captured PRLR was detected with HRP-conjugated goat anti-Fcγ antibody and visualized with TMB colorimetric substrate by measuring absorbance at 450 nm. […] Mixtures were then added to plates coated with in 1 μg/mL PRL and captured PRLR was detected as described above. Data were analyzed using a four-parameter logistic equation over an 11-point response curve in GraphPad Prism software and IC50 values were calculated.

[2] = target: cynomolgus monkey PRLR (dimeric) binding to PRL; assay: as above; parameters: species or system Macaca fascicularis; conditions: plates coated with 1 μg/mL PRL; read-out: EC50, monkey PRLR binding to captured PRL
Chain of cynomolgus monkey PRLR (dimeric) binding to PRL (as listed by the source): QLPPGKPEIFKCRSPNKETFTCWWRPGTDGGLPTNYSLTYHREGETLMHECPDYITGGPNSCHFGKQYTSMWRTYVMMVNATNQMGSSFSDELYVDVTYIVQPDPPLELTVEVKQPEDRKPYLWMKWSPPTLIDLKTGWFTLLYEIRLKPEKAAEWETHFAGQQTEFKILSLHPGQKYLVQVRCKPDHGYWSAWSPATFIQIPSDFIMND
Description: as §1

[3] = test system: PRLR in HEK293/PRLR/STAT5-Luc cells; assay: STAT5 luciferase reporter assay, blocking of PRL-induced PRLR signaling (2 nM PRL); type: cell-based; conditions: PRL dose response, no antibody; read-out: EC50, stimulation of human PRLR signaling
Description: The capacity of H1H6958N2 and H1H6958N2-DM1 to block human PRL-induced PRLR signaling was determined in a luciferase reporter assay using the HEK293 cell line engineered to constitutively express PRLR and stably transduced with a lucifierase reporter construct comprising 5 tandem STAT5 binding sites derived from the promoter of the human interleukin-2 receptor α gene [STAT5 response element (×5)-luciferase] (John et al., The EMBO Journal, 1996, 15(20): 5627-5635). […] Plates were incubated at 37° C. and 5% CO2 for 5 hours and equilibrated to room temperature for 10 minutes. Luciferase activity was again measured using the ONE-Glo substrate and measuring luminescence.

HEK293 (293) cells = assay: In vitro cell viability (cell kill) assay, CCK8; type: cell-based, human; conditions: HEK293, Table 13
Method in brief: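 Three-day exposure to DM1-conjugated anti-PRLR antibodies or DM1-SMe, 500 nM down to 5 pM, in cells engineered to express human PRLR. Surviving cells are quantified by CCK8 absorbance or by imaged Hoechst nuclear counts, relative to untreated wells.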

T47D cells [4] = assay: Cell kill in the presence of PRLR ligand PRL (15 nM); type: cell-based, human; conditions: Table 13, + 15 nM PRL
Description: (§2) Next, the ability of anti-PRLR-DM1 antibody-drug conjugates (i.e., anti-PRLR antibodies conjugated to DM1 via a non-cleavable linker [SMCC]) to reduce cell viability was determined using in vitro cell based assays. Cells were seeded in PDL-coated 96 well plates at 1500 to 10000 cells per well in complete growth media and allowed to grow overnight. For cell viability curves, ADCs or free DM1 (as the methyl disulfide derivative DM1-SMe) were added to the cells at final concentrations ranging from 500 nM to 5 pM and incubated for 3 days. The 293, PC3 and T47D cells were incubated with CCK8 (Dojindo, Rockville, Md.) for the final 1-3 hours and the absorbance at 450 nm (OD450) was determined on a Flexstation3 (Molecular Devices, Sunnyvale, Calif.). MCF7 cells were treated with Hoechst 33342 nuclear stain while being fixed with 4% formaldehyde. Images were acquired on the ImageXpress micro XL (Molecular Devices, Sunnyvale, Calif.) and nuclear counts were determined via Columbus image analysis software (Perkin Elmer, Shelton, Conn.). Background OD450 values (PC3, 293, and T47D) or nuclear counts (MCF7) from digitonin (40 nM) treated cells was subtracted from all wells and viability was expressed as a percentage of the untreated controls. IC50 values were determined from a four-parameter logistic equation over a 10-point response curve (GraphPad Prism).

T47D cells [5] = assay: In vitro cell viability (cell kill) assay, CCK8; type: cell-based, human; conditions: T47D; Table 13; without PRL
Description: as §2

Chain of human PRLR (dimeric) binding to PRL (P16471 with tags, fused parts or gaps limits assumed): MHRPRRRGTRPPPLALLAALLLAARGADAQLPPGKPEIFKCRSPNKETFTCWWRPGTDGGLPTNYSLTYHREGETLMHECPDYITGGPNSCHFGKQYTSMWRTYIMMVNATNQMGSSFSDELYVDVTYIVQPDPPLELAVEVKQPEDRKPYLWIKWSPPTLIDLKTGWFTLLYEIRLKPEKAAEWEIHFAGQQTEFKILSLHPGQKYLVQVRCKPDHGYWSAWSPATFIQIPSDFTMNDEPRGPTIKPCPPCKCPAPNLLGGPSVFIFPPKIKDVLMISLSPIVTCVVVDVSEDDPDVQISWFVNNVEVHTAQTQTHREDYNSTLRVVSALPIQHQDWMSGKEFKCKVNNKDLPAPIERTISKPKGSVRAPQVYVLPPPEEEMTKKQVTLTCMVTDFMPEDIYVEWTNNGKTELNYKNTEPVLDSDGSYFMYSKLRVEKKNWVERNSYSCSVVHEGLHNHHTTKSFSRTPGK

Molecule | EC50 [1] [nM] | EC50 [2] [nM] | EC50 [3] [nM] | % Kill (HEK293 (293) cells; + 15 nM PRL) [%] | % Kill (HEK293 (293) cells; without PRL) [%] | % Kill (T47D cells [4]) [%] | % Kill (T47D cells [5]) [%]
PRL: monomeric human prolactin, ligand of PRLR (protein) LPICPGGAARCQVTLRDLFDRAVVLSHYIHNLSSEMFSEFDKRYTHGRGFITKAINSCHTSSLATPEDKEQAQQMNQKDFLSLIVSILRSWNEPLYHLVTEVRGMQEAPEAILSKAVEIEEQTKRLLEGMELIVSQVHPETKENEIYPVWSGLPSLQMADEESRLSAYYNLLHCLRRDSHKIDNYLKLLKCRIIHNNNC | 4.9 | 5.7 | 2.1 | – | – | – | –
H1H6782P-SMCC-DM1 (conjugate) VH: EVQLVESGGGLVQPGRSLRLSCAASGFTFDDYAMHWVRQAPGKGLEWVSGIIWNSGHIGYGDSVKGRFTISRDNAKKSLYLQMNSLRAEDTALYYCARDSGRYQSYFDYWGQGTLVTVSS VL: DIQMTQSPSTLSASVGDRVTITCRASHIISSWLAWYQQKPGKAPKVLIFKASSLESGVPSRFSGSGSGTEFTLTISSLQPDDFATYYCQQYNTYSRTFGQGTKVEIK | – | – | – | 78 | 83 | 97 | 98
